Reference: PMC2811071

Target: T1, raver1 RRM1 (human (Homo sapiens), UniProt Q8IY67 59-130)
T1 sequence: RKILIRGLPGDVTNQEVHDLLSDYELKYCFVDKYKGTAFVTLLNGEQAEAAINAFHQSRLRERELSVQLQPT
Experiment: ITC

UCAUGCAGUCUG (ssRNA) [vinculin mRNA 12-mer]
binding result: binds
